# According to publication PMC5894356 (Structure (London, England : 1993), 2018):
# B1: S. cerevisiae 5-aminolevulinic acid synthase (Hem1), PLP-cleaved ALAS 58-548 (enzyme)
# chain: not shown
# Target: the molecule itself
# Assay: crystal structure
protein,measurement,value
B1,stoichiometry N,2
